For one substance, percent inhibition of PG activity by 3.24 nM GhPGIP1 over pH 7.0-10.0; 23.79%, percent inhibition of PG activity by 3.24 nM GhPGIP1 over pH 3.5-5.0; 26.88% and IC50 of inhibition; the text gives it for VdPG1, while the caption and footnote of Table 1 give it as antifungal activity on the growth of V. dahliae (eight doses of purified GhPGIP1) results are on record in publication PMC5228132.

For assay [1], the target named is FovPG1 (Fusarium oxysporum f. sp. vasinfectum polygalacturonase 1) (Fusarium oxysporum f. sp. vasinfectum).
Assay [2] addresses VdPG1 (Verticillium dahliae polygalacturonase 1) (Verticillium dahliae).
For assay [3] the target is unchanged. The source holds these as a separate data set.

“GhPGIP1 (cotton polygalacturonase-inhibiting protein 1) (natural protein)”: the percent inhibition of PG activity by 3.24 nM GhPGIP1 over pH 7.0-10.0; 23.79% at pH 8.0 and 29.61% at pH 9.0 in assay [1] is 29.6%. For the same substance, the percent inhibition of PG activity by 3.24 nM GhPGIP1 over pH 3.5-5.0; 26.88% at pH 4.2 and 31.45% at pH 4.8 in assay [2] was 31.4%. This substance came in with an IC50 of inhibition; the text gives it for VdPG1, while the caption and footnote of Table 1 give it as antifungal activity on the growth of V. dahliae (eight doses of purified GhPGIP1) in assay [3] of 44.4 µg/mL.
